Measured values taken from patent publication US20200079862A1 (AGENUS, published 2020).

Experiments:
[1] = target: T1, recombinant human TWEAK R-Fc (SinoBiological, 10431-H01H) (human, UniProt Q9NP84 28-80); assay: Luminex suspension array, protein coupled to microspheres, PE MFI
T1 construct: Bought construct; not shown: Fc part
Protocol: (§1) A number of TNFR family members were chemically coupled to Luminex® microspheres using standard NETS-ester chemistry. […] Briefly, 25 μl of each dilution was incubated in the dark (20° C., 650 rpm) with 1500 Luminex® microspheres in 5 μl assay buffer for 1 hour in 96 half-well filter plates (Millipore, MABVN1250). Luminex® microspheres were coupled with recombinant human OX40-His (SinoBiological, 10481-H08H), recombinant human OX40-Fc (R&D systems, 3388-OX), recombinant human LTBR-Fc (Acros Biosystems, LTR-H5251), recombinant human GITR-His (SinoBiological, 13643-H08H), recombinant human GITR-Fc (R&D, 689-GR), recombinant human DR6-Fc (SinoBiological, 10175-H02H), recombinant human DR3-Fc (R&D, 943-D3), recombinant human TWEAK R-Fc (SinoBiological, 10431-H01H), recombinant human CD137-His (SinoBiological, 10041-H08H), recombinant human BAFFR-Fc (R&D, 1162-BR) or anti-human IgG (F(ab)₂-specific, JIR, 105-006-097) via amine coupling with COOH bead surface. Standard curves were generated using duplicates of 25 μl of a human IgG1 standard (Sigma, I5154) with 1:3 dilution series (0.08-540 ng/ml). Detection was carried out using 60 μl of goat anti-human IgG F(ab)₂ labeled with R-PE (2.5 μg/ml; JIR 109-116-098, AbDSerotec Rapid RPE Antibody Conjugation Kit, LNK022RPE) and another hour of incubation time (20° C., 650 rpm). Plates were analyzed using a Luminex® 200 system (Millipore). A total of 100 beads were counted per well in a 48 μl sample volume. PE MFI values were used to determine specific or non-specific binding to the recombinant proteins mentioned above.

[2] = target: T2, recombinant human CD137-His (SinoBiological, 10041-H08H) (human, UniProt Q07011 24-186); assay: as above
T2 construct: Bought construct; not shown: His tag
T2 sequence (Q07011 24-186 limits assumed): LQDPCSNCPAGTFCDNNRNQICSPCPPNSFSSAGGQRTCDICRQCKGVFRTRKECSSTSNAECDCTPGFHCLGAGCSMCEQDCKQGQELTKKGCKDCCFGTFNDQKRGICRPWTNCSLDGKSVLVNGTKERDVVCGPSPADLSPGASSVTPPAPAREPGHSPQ
Protocol: as §1

[3] = target: T3, recombinant human BAFFR-Fc (R&D, 1162-BR) (human, UniProt Q96RJ3 7-71, limits assumed); assay: as above
T3 construct: Bought construct; not shown: Fc part
T3 sequence (Q96RJ3 7-71 limits assumed): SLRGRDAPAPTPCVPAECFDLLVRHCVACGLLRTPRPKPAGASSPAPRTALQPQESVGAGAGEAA
Protocol: as §1

[4] = target: T4, recombinant human GITR-His (SinoBiological, 13643-H08H) (human, UniProt Q9Y5U5 26-161); assay: as above
T4 construct: Bought construct; not shown: His tag
T4 sequence (looked up): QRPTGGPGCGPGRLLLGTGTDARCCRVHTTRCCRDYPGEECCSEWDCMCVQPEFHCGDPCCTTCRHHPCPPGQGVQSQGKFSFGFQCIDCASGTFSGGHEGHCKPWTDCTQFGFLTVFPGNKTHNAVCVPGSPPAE
Protocol: as §1

[5] = target: T5, recombinant human GITR-Fc (R&D, 689-GR) (human, UniProt Q9Y5U5 26-161); assay: as above
T5 construct: Bought construct; not shown: Fc part
T5 sequence (looked up): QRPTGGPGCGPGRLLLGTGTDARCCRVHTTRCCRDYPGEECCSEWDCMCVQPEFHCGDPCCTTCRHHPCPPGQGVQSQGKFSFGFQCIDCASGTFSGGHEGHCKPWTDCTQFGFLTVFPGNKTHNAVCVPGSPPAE
Protocol: as §1

[6] = target: T6, recombinant human LTBR-Fc (Acros Biosystems, LTR-H5251) (human, UniProt P36941 28-227, limits assumed); assay: as above
T6 construct: Bought construct; not shown: Fc part
T6 sequence (P36941 28-227 limits assumed): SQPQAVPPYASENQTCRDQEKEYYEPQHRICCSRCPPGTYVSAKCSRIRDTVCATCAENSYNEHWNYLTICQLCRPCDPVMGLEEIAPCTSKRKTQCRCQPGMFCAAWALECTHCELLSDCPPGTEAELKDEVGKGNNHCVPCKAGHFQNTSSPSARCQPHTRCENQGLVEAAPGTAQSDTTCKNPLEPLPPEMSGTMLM
Protocol: as §1

[7] = target: T7, recombinant human DR6-Fc (SinoBiological, 10175-H02H) (human, UniProt O75509 42-349); assay: as above
T7 construct: Bought construct; not shown: Fc part
T7 sequence (looked up): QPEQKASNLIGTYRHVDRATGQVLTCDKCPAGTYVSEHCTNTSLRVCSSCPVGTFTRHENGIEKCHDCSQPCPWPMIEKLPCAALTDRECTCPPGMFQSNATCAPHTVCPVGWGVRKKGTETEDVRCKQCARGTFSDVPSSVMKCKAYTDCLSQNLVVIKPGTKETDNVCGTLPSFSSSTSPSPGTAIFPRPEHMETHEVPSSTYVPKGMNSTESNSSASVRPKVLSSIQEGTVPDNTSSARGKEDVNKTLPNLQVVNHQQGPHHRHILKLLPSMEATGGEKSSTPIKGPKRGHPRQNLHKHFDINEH
Protocol: as §1

[8] = target: T8, recombinant human DR3-Fc (R&D, 943-D3) (human, UniProt Q93038 25-201, limits assumed); assay: as above
T8 construct: Bought construct; not shown: Fc part
T8 sequence (looked up): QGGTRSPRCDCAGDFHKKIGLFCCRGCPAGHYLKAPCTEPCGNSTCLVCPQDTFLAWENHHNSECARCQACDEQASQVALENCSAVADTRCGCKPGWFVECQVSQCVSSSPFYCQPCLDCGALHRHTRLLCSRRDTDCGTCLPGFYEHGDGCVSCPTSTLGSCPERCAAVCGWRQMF
Protocol: as §1

[9] = target: T9, human OX40 expressed on cells (human, UniProt P43489 29-277); assay: flow cytometry, 10-point titration 0.5-10,000 ng/ml, APC anti-human kappa detection
T9 construct: It was expressed ectopically on Jurkat cells or induced on Hut102 cells and primary T cells; also called huOX40; Jurkat-huOX40
T9 sequence: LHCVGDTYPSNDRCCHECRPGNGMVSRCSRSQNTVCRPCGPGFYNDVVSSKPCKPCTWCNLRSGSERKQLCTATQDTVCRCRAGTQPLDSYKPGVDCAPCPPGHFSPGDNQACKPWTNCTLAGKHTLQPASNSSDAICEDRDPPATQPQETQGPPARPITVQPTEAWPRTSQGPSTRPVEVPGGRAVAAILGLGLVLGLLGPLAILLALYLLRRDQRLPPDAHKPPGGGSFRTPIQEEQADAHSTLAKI
Protocol: Stable clones were generated via single-cell sorting (FACS ARIA Fusion). […] Samples were then washed two times and analyzed using the LSRFortessa flow cytometer (BD Biosciences). FACS plots were analyzed using a combination of FACS DIVA and WEHI Weasel software. Data were plotted with Graphpad Prism software.

[10] = target: T10, recombinant human OX40-His (SinoBiological, 10481-H08H) (human, UniProt P43489 29-216); assay: Luminex suspension array, protein coupled to microspheres, PE MFI; antibody at 10, 100 and 1000 ng/ml
T10 construct: not shown: His tag
T10 sequence: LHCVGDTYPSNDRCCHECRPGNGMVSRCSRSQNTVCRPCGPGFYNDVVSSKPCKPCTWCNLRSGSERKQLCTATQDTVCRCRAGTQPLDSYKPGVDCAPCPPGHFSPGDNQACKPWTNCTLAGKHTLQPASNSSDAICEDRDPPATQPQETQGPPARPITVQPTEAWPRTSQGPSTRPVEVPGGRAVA
Protocol: as §1, with “Detection was carried out using 60 μl of goat anti-human IgG F(ab)₂ labeled with R-PE (2.5 μg/ml; JIR 109-116-098, AbDSerotec Rapid RPE Antibody Conjugation Kit, LNK022RPE) and another hour of incubation time (20° C., 650 rpm).” left out, “PE MFI values were used to determine specific or non-specific binding to the recombinant proteins mentioned above.” left out

[11] = target: T11, recombinant human OX40-Fc (R&D systems, 3388-OX) (human, UniProt P43489 29-216); assay: as above
T11 construct: not shown: Fc part
T11 sequence: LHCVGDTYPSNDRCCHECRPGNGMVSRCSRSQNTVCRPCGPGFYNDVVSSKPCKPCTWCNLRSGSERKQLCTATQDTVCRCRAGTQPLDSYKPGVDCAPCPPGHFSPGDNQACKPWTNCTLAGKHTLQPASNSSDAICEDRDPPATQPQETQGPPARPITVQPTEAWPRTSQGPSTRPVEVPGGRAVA
Protocol: as §1, with “Detection was carried out using 60 μl of goat anti-human IgG F(ab)₂ labeled with R-PE (2.5 μg/ml; JIR 109-116-098, AbDSerotec Rapid RPE Antibody Conjugation Kit, LNK022RPE) and another hour of incubation time (20° C., 650 rpm).” left out, “PE MFI values were used to determine specific or non-specific binding to the recombinant proteins mentioned above.” left out

binding result [9]: binds | binding result [10]: binds | binding result [11]: binds
B1: pab2049 (IgG1) (antibody, V domains shown)
VH: EVQLVESGGGLVQPGGSLKLSCAASGFTFSGSAMHWVRQASGKGLEWVGRIRSKANSYATAYAASVKGRFTISRDDSKNTAYLQMNSLKTEDTAVYYCTSGIYDSSGYDYWGQGTLVTVSS
VL: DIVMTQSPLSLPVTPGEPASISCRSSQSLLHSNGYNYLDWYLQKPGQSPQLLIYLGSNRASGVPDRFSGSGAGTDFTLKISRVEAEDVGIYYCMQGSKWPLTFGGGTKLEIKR
notes: Human IgG1; also called anti-OX40 antibody pab2049 (IgG1)
binding result [1]: no binding (tested: 10 ng/ml, 100 ng/ml and 1000 ng/ml) | binding result [2]: no binding (tested: 10 ng/ml, 100 ng/ml and 1000 ng/ml) | binding result [3]: no binding (tested: 10 ng/ml, 100 ng/ml and 1000 ng/ml) | binding result [4]: no binding (tested: 10 ng/ml, 100 ng/ml and 1000 ng/ml) | binding result [5]: no binding (tested: 10 ng/ml, 100 ng/ml and 1000 ng/ml) | binding result [6]: no binding (tested: 10 ng/ml, 100 ng/ml and 1000 ng/ml) | binding result [7]: no binding (tested: 10 ng/ml, 100 ng/ml and 1000 ng/ml) | binding result [8]: no binding (tested: 10 ng/ml, 100 ng/ml and 1000 ng/ml)
